Blank lines part the entries; values can stand above or below the binder they belong to.
Target: T1, His-SUMOSTAR-FANCD2(1-762) (Drosophila melanogaster) (Drosophila melanogaster, UniProt Q8MYL1 1-762)
T1 sequence (looked up): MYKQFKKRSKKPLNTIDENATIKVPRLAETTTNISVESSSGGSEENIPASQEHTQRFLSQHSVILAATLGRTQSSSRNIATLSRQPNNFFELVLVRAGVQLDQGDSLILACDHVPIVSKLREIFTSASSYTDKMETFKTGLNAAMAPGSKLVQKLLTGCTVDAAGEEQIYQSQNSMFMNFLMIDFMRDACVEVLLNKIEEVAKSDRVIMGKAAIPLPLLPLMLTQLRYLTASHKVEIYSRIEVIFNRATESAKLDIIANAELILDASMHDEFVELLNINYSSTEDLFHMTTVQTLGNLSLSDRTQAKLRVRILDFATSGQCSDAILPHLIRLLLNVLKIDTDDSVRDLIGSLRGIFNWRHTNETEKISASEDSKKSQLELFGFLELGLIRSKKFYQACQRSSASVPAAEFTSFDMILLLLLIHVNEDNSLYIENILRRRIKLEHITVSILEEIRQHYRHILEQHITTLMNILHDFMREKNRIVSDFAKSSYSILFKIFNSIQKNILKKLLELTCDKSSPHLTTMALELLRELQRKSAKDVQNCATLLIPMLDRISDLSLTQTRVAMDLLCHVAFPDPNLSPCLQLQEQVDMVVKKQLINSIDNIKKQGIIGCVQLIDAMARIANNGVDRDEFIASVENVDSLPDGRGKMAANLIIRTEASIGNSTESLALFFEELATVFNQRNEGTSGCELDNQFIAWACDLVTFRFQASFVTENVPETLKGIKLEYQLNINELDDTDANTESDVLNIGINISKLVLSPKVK
Assay: pull-down

binding result: binds
B1: Drosophila melanogaster FANCL, full length (enzyme, UniProt Q8T913 1-381, looked up)
chain: MESNEDVERLLCQKYPGLAAELQPSGACIIRGVLGSEDTWRRLKLYLPHHPALHGFQLYVQESLEYKLYTSANLKLQDDWLLEDFLDHLPKILPAQKAPTVPKELCREGNIYYDILALYKSNEYCLQVDEACSMIRFSEFTDFEQHYLELKIPSLLLLDHSLPDCVSLGEMLTKSAGNLEEALNLFRKLLEDLRPFYDNFMDIDELCHVLQPSPISSKHKTRLFPLKDRVYLKLTIADPFACIASMSLKIIGPTEEVARLRHVLSDGLSNWDSEMNIHKNLLRMFDLCYFPMPDWSDGPKLDEEDNEELRCNICFAYRLDGGEVPLVSCDNAKCVLKCHAVCLEEWFKTLMDGKTFLEVSFGQCPFCKAKLSTSFAALLND

binding result: binds
B2: FANCL DRWD-RING (residues 105-381) (domain or fragment, Drosophila melanogaster, UniProt Q8T913 105-381, looked up)
chain: LCREGNIYYDILALYKSNEYCLQVDEACSMIRFSEFTDFEQHYLELKIPSLLLLDHSLPDCVSLGEMLTKSAGNLEEALNLFRKLLEDLRPFYDNFMDIDELCHVLQPSPISSKHKTRLFPLKDRVYLKLTIADPFACIASMSLKIIGPTEEVARLRHVLSDGLSNWDSEMNIHKNLLRMFDLCYFPMPDWSDGPKLDEEDNEELRCNICFAYRLDGGEVPLVSCDNAKCVLKCHAVCLEEWFKTLMDGKTFLEVSFGQCPFCKAKLSTSFAALLND
